The values that follow come from EP2135619A1.

This assay concerns the target human CC-chemokine receptor 2 (CCR2), endogenous on THP-1 cells, PBMC and whole blood cells (human) (UniProt P41597). The assay is described as follows: cell-based or functional assay.
Chain of UniProt P41597 (P41597 whole entry): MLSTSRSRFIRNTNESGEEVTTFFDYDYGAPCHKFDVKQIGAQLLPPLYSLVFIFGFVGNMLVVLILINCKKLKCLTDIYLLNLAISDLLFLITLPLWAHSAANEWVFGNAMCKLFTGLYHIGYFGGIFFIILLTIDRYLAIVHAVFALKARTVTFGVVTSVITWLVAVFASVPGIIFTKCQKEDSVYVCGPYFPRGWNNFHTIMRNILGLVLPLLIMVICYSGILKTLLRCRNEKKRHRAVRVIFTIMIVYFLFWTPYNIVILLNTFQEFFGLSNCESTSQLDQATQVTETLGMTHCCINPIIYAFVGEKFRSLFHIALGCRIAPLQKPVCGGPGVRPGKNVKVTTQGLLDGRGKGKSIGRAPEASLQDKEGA

Substance murine monoclonal antibody LS132.1D9 returned an MCP-1-induced chemotaxis of fresh PBMC of 10 µg/mL.
